Source: PMC2440032, “Odorranalectin Is a Small Peptide Lectin with Potential for Drug Delivery and Targeting” (PLoS ONE, 2008)

How the values were obtained:
[1] = molecular target: T1, fetuin (UniProt P12763 19-359); test: SPR; Biacore 3000; odorranalectin immobilised on sensor chip CM-5 by amine coupling, glycoproteins as analytes diluted in HBS-EP (10 mM HEPES-buffered saline, 3 mM EDTA, 0.005% surfactant P-20, pH 7.4); 1:1 binding model; KD calculated from ka and kd; conditions: both partners purified
T1 sequence (looked up): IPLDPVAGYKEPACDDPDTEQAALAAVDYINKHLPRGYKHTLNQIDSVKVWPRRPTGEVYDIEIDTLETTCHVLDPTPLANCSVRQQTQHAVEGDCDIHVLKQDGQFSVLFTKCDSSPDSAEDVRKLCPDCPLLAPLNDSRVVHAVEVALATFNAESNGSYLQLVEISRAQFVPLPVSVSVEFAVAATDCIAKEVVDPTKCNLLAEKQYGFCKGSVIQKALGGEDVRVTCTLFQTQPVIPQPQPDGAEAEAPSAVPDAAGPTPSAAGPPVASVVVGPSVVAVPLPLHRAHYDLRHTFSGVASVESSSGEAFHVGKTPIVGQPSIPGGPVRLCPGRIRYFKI

[2] = molecular target: Bovine submaxillary mucin (bovine, heavily O-glycosylated (sialylated) mucin preparation; the polypeptide is not given, and the main bovine submaxillary mucin (MUC19) is assumed with limits from the CHAIN feature; the pre); test: as above; conditions: both partners purified

B1: odorranalectin (peptide)
peptide: YASPKCFRYPNGVLACT
notes: odorranalectin, mature 17-residue peptide at the C-terminus of the 61-residue precursor, Odorrana grahami; follows the di-basic site K42R43 of the precursor; One intramolecular disulfide bond Cys6-Cys16; Immobilised on a CM-5 chip by amine coupling; Details of purification and synthesis are in Materials and Methods S1; also called lectin-like peptide; source: purified from O. grahami skin …
For B1, the Kd [1] was 211 nM and the Kd [2] was 2900 nM.
